B1: Recombinant human Bri2 BRICHOS domain (domain or fragment, UniProt Q9Y287 137-231, looked up)
chain: FADSDPANIVHDFNKKLTAYLDLNLDKCYVIPLNTSIVMPPRNLLELLINIKAGTYLPQSYLIHEHMVITDRIENIDHLGFFIYRLCHDKETYKL
B2: NOTCH3 EGF1–5 R133C (CADASIL-mutated truncated human Notch3 extracellular domain, amino acids 1–234) (domain or fragment)
chain: not shown
notes: signal peptide in the construct; human NOTCH3 extracellular domain, first five EGF-like repeats, amino acids 1–234, with the CADASIL mutation R133C (in EGF3); codon-optimized construct derived from Duering et al., 2011; R133C is a common CADASIL mutation found in patients; also called N3 EGF1–5 R133C; R133C mutant
B3: NOTCH3 EGF1–5 wildtype (truncated human Notch3 extracellular domain, first five EGF-like repeats, amino acids 1–234) (domain or fragment)
chain: not shown
notes: signal peptide in the construct; human NOTCH3 extracellular domain, first five EGF-like repeats, amino acids 1–234; codon-optimized construct derived from Duering et al., 2011; also called N3 EGF1–5 WT; WT N3 EGF1–5

Assays:
[1] = target: B2; experiment: cell-based or functional assay
[2] = target: the molecule itself; experiment: native gel or EMSA; N3 EGF1–5 proteins at 30 µM in 1 × PBS, 37°C for 80 h with and without Bri2 BRICHOS at 1:1 and 1:2 molar; native loading buffer free of DTT and SDS; 6% native PAGE

Binder | final aggregation intensity of R133C by turbidity at 360 nm, 37°C, 10 µM, BRICHOS at 1:1 molar ratio [1] [% reduction] | binding result [2]
B1 | ≤ 50 | 
B2 |  | binds
B3 |  | binds
